From patent publication US20100048868A1

Molecular target: recombinant human HER2 extracellular domain (human) (UniProt P04626)
Assay: SPR (Biacore 2000), HER2-ECD immobilised, 1:1 model, 25 C

Kd: 3 nM
koff: 0.00076 s⁻¹
Substance: His6-(ZHER2 A)2 (designed binder)
